Measurements as given in patent US20250223280A1.
*1 amine or outer side, *2 acyl side, *3 side chain or, on linkers, in order; H or OH if unused. Bridges are numbered along the chain shown (N, C = ends). [ ]: non-standard residue; d: D form. N5,N5‑dimethylglutamine = CN(C)C(=O)CC[C@H](N[*:1])C(=O)[*:2]; Pro(4S-NH2) = N[C@@H]1CN[C@H](C(=O)O)C1

Tests used:
IgG [1] = assay: SPR, IgG immobilised on CM5 chip, compound as analyte; value from the legend of the grade (**** = Kd <100 nM)
IgG [2] = assay: SPR, IgG immobilised on CM5 chip, compound as analyte; value from the legend of the grade (++++ = Kd <100 nM)

Binder	Kd (IgG [1]) [nM]	Kd (IgG [2]) [nM]
cyclo([Pro(4S-NH2)]DCAWHLGALVWCT[dP]) (disulfide 3-13; SMILES CC(C)C[C@@H]1NC(=O)[C@H](C)NC(=O)CNC(=O)[C@H](CC(C)C)NC(=O)[C@H](Cc2c[nH]cn2)NC(=O)[C@H](Cc2c[nH]c3ccccc23)NC(=O)[C@H](C)NC(=O)[C@@H]2CSSC[C@H](NC(=O)[C@H](Cc3c[nH]c4ccccc34)NC(=O)[C@H](C(C)C)NC1=O)C(=O)N[C@@H]([C@@H](C)O)C(=O)N1CCC[C@@H]1C(=O)N1C[C@@H](N)C[C@H]1C(=O)N[C@@H](CC(=O)O)C(=O)N2) [Intermediate 17]	< 100	< 100
PDCAWHLGELVWCTP (residue 1 = (2S,4S)-4-aminoproline; residue 12 = 6-chlorotryptophan; residue 15 = D-Pro; backbone cyclised head to tail; disulfide Cys3-Cys13) [Intermediate 19]	< 100	< 100
PDCXWHLGELVWCTP (residue 1 = (2S,4S)-4-aminoproline; residue 4 (X) = homoserine; residue 15 = D-Pro; backbone cyclised head to tail; disulfide Cys3-Cys13) [Intermediate 21]	< 100	< 100
cyclo([Pro(4S-NH2)]DCAWHLGQLVWCT[dP]) (disulfide 3-13; SMILES CC(C)C[C@@H]1NC(=O)[C@H](Cc2c[nH]cn2)NC(=O)[C@H](Cc2c[nH]c3ccccc23)NC(=O)[C@H](C)NC(=O)[C@@H]2CSSC[C@H](NC(=O)[C@H](Cc3c[nH]c4ccccc34)NC(=O)[C@H](C(C)C)NC(=O)[C@H](CC(C)C)NC(=O)[C@H](CCC(N)=O)NC(=O)CNC1=O)C(=O)N[C@@H]([C@@H](C)O)C(=O)N1CCC[C@@H]1C(=O)N1C[C@@H](N)C[C@H]1C(=O)N[C@@H](CC(=O)O)C(=O)N2) [Intermediate 18]	< 100	< 100
cyclo([Pro(4S-NH2)]DCTWHLGELVWCT[dP]) (disulfide 3-13; SMILES CC(C)C[C@@H]1NC(=O)[C@H](Cc2c[nH]cn2)NC(=O)[C@H](Cc2c[nH]c3ccccc23)NC(=O)[C@H]([C@@H](C)O)NC(=O)[C@@H]2CSSC[C@H](NC(=O)[C@H](Cc3c[nH]c4ccccc34)NC(=O)[C@H](C(C)C)NC(=O)[C@H](CC(C)C)NC(=O)[C@H](CCC(=O)O)NC(=O)CNC1=O)C(=O)N[C@@H]([C@@H](C)O)C(=O)N1CCC[C@@H]1C(=O)N1C[C@@H](N)C[C@H]1C(=O)N[C@@H](CC(=O)O)C(=O)N2) [Intermediate 16]	< 100	< 100

Continued, values first:

Kd (IgG [1]) [nM]	Kd (IgG [2]) [nM]	Binder
< 100	< 100	cyclo([Pro(4S-NH2)]NCAWHLG[N5,N5‑dimethylglutamine]LVWCT[dP]) (disulfide 3-13; SMILES CC(C)C[C@@H]1NC(=O)[C@H](Cc2c[nH]cn2)NC(=O)[C@H](Cc2c[nH]c3ccccc23)NC(=O)[C@H](C)NC(=O)[C@@H]2CSSC[C@H](NC(=O)[C@H](Cc3c[nH]c4ccccc34)NC(=O)[C@H](C(C)C)NC(=O)[C@H](CC(C)C)NC(=O)[C@H](CCC(=O)N(C)C)NC(=O)CNC1=O)C(=O)N[C@@H]([C@@H](C)O)C(=O)N1CCC[C@@H]1C(=O)N1C[C@@H](N)C[C@H]1C(=O)N[C@@H](CC(N)=O)C(=O)N2) [Intermediate 27]
< 100	< 100	cyclo([Pro(4S-NH2)]ACAWHLGALVWCT[dP]) (disulfide 3-13; SMILES CC(C)C[C@@H]1NC(=O)[C@H](C)NC(=O)CNC(=O)[C@H](CC(C)C)NC(=O)[C@H](Cc2c[nH]cn2)NC(=O)[C@H](Cc2c[nH]c3ccccc23)NC(=O)[C@H](C)NC(=O)[C@@H]2CSSC[C@H](NC(=O)[C@H](Cc3c[nH]c4ccccc34)NC(=O)[C@H](C(C)C)NC1=O)C(=O)N[C@@H]([C@@H](C)O)C(=O)N1CCC[C@@H]1C(=O)N1C[C@@H](N)C[C@H]1C(=O)N[C@@H](C)C(=O)N2) [Intermediate 25]
< 100	< 100	cyclo([Pro(4S-NH2)]ACAWHLG[N5,N5‑dimethylglutamine]LVWCT[dP]) (disulfide 3-13; SMILES CC(C)C[C@@H]1NC(=O)[C@H](Cc2c[nH]cn2)NC(=O)[C@H](Cc2c[nH]c3ccccc23)NC(=O)[C@H](C)NC(=O)[C@@H]2CSSC[C@H](NC(=O)[C@H](Cc3c[nH]c4ccccc34)NC(=O)[C@H](C(C)C)NC(=O)[C@H](CC(C)C)NC(=O)[C@H](CCC(=O)N(C)C)NC(=O)CNC1=O)C(=O)N[C@@H]([C@@H](C)O)C(=O)N1CCC[C@@H]1C(=O)N1C[C@@H](N)C[C@H]1C(=O)N[C@@H](C)C(=O)N2) [Intermediate 26]
< 100	< 100	cyclo([Pro(4S-NH2)]NCAWHLGALVWCT[dP]) (disulfide 3-13; SMILES CC(C)C[C@@H]1NC(=O)[C@H](C)NC(=O)CNC(=O)[C@H](CC(C)C)NC(=O)[C@H](Cc2c[nH]cn2)NC(=O)[C@H](Cc2c[nH]c3ccccc23)NC(=O)[C@H](C)NC(=O)[C@@H]2CSSC[C@H](NC(=O)[C@H](Cc3c[nH]c4ccccc34)NC(=O)[C@H](C(C)C)NC1=O)C(=O)N[C@@H]([C@@H](C)O)C(=O)N1CCC[C@@H]1C(=O)N1C[C@@H](N)C[C@H]1C(=O)N[C@@H](CC(N)=O)C(=O)N2) [Intermediate 28]
< 100	< 100	PDCAWHLGELVWCTP (residue 1 = (2S,4S)-4-aminoproline; residue 12 = D-Trp; residue 15 = D-Pro; backbone cyclised head to tail; disulfide Cys3-Cys13) [Intermediate 24]
< 100	< 100	cyclo([Pro(4S-NH2)]DCAWHLG[N5,N5‑dimethylglutamine]LVWCT[dP]) (disulfide 3-13; SMILES CC(C)C[C@@H]1NC(=O)[C@H](Cc2c[nH]cn2)NC(=O)[C@H](Cc2c[nH]c3ccccc23)NC(=O)[C@H](C)NC(=O)[C@@H]2CSSC[C@H](NC(=O)[C@H](Cc3c[nH]c4ccccc34)NC(=O)[C@H](C(C)C)NC(=O)[C@H](CC(C)C)NC(=O)[C@H](CCC(=O)N(C)C)NC(=O)CNC1=O)C(=O)N[C@@H]([C@@H](C)O)C(=O)N1CCC[C@@H]1C(=O)N1C[C@@H](N)C[C@H]1C(=O)N[C@@H](CC(=O)O)C(=O)N2) [Intermediate 23]
< 100	< 100	cyclo([Pro(4S-NH2)]DCAWHLG[N5‑methylglutamine]LVWCT[dP]) (disulfide 3-13) [Intermediate 22]
